{"source": "the nanobody polyreactivity screen of Harvey et al. (2022)", "data": [{"assay": "yeast display, Sf9 membrane polyspecificity reagent, FACS + sequencing; frameworks hold sequencing errors", "in_short": "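Genes from sorted yeast were amplified by colony PCR, read by MiSeq 2 × 250 sequencing and filtered on CDR length. These cells carried a synthetic nanobody library in Saccharomyces cerevisiae BJ5465 and were sorted by FACS into low and high (top ~1%) gates on anti-HA and streptavidin fluorescence. Polyreactivity is labelled according to the gate of origin.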", "values": [{"sequence": "QVQLEESGGGLDQAGGSLRLSCAASAIIFALYARGWYSQARGKHRELVATITYSGGSTNYADSLKGRYTISRDNAKNPVYLLMHSLKPEDTAVYYCAAASVPWGGYYSGQGTQVTVSS", "polyreactivity (PSR sort gate)": "low polyreactivity"}, {"sequence": "QVQLEESGGGLLQAGGSHSLSCAASGSTFYKYGMVWYRQAPGKEREFVAAISGSGDSTYYADSVKGRFTISRDNAKNTVYLHMNRLKPEDTAVYYCNAGPWWYLHEYDYWGQGTQVNVSS", "polyreactivity (PSR sort gate)": "low polyreactivity"}, {"sequence": "QVQLEESGGGLVHAGGILRLSCAASGYTFYYNAMGWYRQAPGKERELVAAISRSRDTTYYADSVKGRFTISRDNAKYTVYLQMYSLKPEDTEVYYCNAVVQVLADFQKYDYWGQGSQVTVSS", "polyreactivity (PSR sort gate)": "low polyreactivity"}, {"sequence": "QVQLEESGGGLVHAGGSLRLSSAASGYTFKYYALACYRQAPGKERELVAAISARGGSTYYADSVKGRFTISRDNAKNTVYLQMNSVKPEDTAVYFCAARSGYGPYRMDYWGQGTQVTVSS", "polyreactivity (PSR sort gate)": "high polyreactivity"}, {"sequence": "QVQLEESGGGLVQAGCSLRLTCAASGSTFYSYPMGWSRQAPGKERELVAAITVSGTSTYYADSVKGRFTISRDNAKNTVYLQMYSVKPEDTAVYYCAADRRTDGHDYWGQGTQVTVSS", "polyreactivity (PSR sort gate)": "high polyreactivity"}, {"sequence": "QVQLEESGGGLVQAGGRIRLSCAASGRIFHGYAMGWYRQAPGKERELVAAISWRGDSTYYADSVKGRFTNSRDNAKNTVYLQMNSLKPEDTAVYYCNDLGENYQFNYWGLGTQVTVSS", "polyreactivity (PSR sort gate)": "low polyreactivity"}, {"sequence": "QVQLEESGGGLVQAGGRLRISCAASGRTFLCYAMGWSRQAPGKERELLAAISKSGGSTYYADSVKGRFTISRDNAKNTVYLQMNSLKPQDTAVYYCAVEVDVYTFSEFYYWGQGTQVTVSS", "polyreactivity (PSR sort gate)": "high polyreactivity"}, {"sequence": "QVQLEESGGGLVQAGGRLRLSCAASGRTITRNAMGWYRQAPGKERELVAAISSRGGSTSYADSVKGRFTISRDNAKNTFYLQMNSLKPEDTAVYYCNKKTAASDYDYWGQGTQVTVSS", "polyreactivity (PSR sort gate)": "high polyreactivity"}, {"sequence": "QVQLEESGGGLVQAGGRLRLSCAASGSILTAYAMGWYRQAPGKERELVAASNFSGDNTYYADSVKGRFTISRDNAKNTVYLQMNSLKPQDTALYYCNADGRYAYVWYDYWGQGTQVTVSS", "polyreactivity (PSR sort gate)": "low polyreactivity"}, {"sequence": "QVQLEESGGGLVQAGGRLRLSCSASGFICGSNAMGWYRQAPGKERELVAAISARGGSTYYADSVKGRFTISRDNAKNPVYLQMNSLKPEDTAVYYCNTGTSGRFLSFGNFDYWGQGTQVTVSS", "polyreactivity (PSR sort gate)": "high polyreactivity"}, {"sequence": "QVQLEESGGGLVQAGGRLRLTCAASGFIFKLYAMGWYRQAPGKERELVAAISGNGGRTYYADSVKGRFTISRDNAKNTVYLQMNSLKPEDTAVDYCAARYVGVQRYYEFDYWGQGTQVTVSS", "polyreactivity (PSR sort gate)": "high polyreactivity"}, {"sequence": "QVQLEESGGGLVQAGGSHRLSCAASGRTFGAYAMGWYLQAPGKEREVVAAITYRGASTYYADSVKGRFTISRDNAMYTVYLQMNSLITEDTAVYSCAAEGSIKYFVGYNWGYNYWGQGSQVTVSS", "polyreactivity (PSR sort gate)": "low polyreactivity"}, {"sequence": "QVQLEESGGGLVQAGGSIRLSCAASGSIFYKYVMGCYRQAPGKERELVAAISRGGGSTYYADSVKGRFTISRDNSKNTVYLQMNSLKPEDTAVYYCNAVVRPRYGHGFDHWGQGTQVTVSS", "polyreactivity (PSR sort gate)": "high polyreactivity"}, {"sequence": "QVQLEESGGGLVQAGGSLRISCAAAGSTFRSNAMGWYRPAPRKERELVAAINSGGSTYYADSVKGRFTISRDNAKNTVYLQMNSLKPEDTAVYYCAARYYTPFGTYRQNIRMYYWGQGTQVTVSS", "polyreactivity (PSR sort gate)": "high polyreactivity"}, {"sequence": "QVQLEESGGGLVQAGGSLRISCAASGFIYRDYDMGWYRQAPGKERELVAAISLSGGSTYYADSVKGRFTISRDNAKNTVYLQMNSLKPEDTAVYYCAAVSAYEGNYWGQGTQVTVSS", "polyreactivity (PSR sort gate)": "high polyreactivity"}, {"sequence": "QVQLEESGGGLVQAGGSLRLCCAASGSTFWAYVMGWYRQAPGKEMELVAAISKSGVRTHYADSVKGRFTISRDNAKNTVYLQMNSRKPEDTAVYYSAAGGVGNLDDYWGQGTQVTVSS", "polyreactivity (PSR sort gate)": "high polyreactivity"}, {"sequence": "QVQLEESGGGLVQAGGSLRLICAASAMGRYRQAPGKERELVAVINSTGGSTYYADSVKGRFTISRDNAKNTVYLQMYSLKPDDTAVYYCARVTRRGPGYTTLYCRYDYWGQGTQVTVSS", "polyreactivity (PSR sort gate)": "low polyreactivity"}, {"sequence": "QVQLEESGGGLVQAGGSLRLICAASGIFFIYAMGWYRQARGKERELVADIDSGGPTYYADSVKGRFTISRDNAKNTVYLQMNRLQPEDTAVYYCAFDYSNVDLYSLLFYESDYWGQGTQVTVSS", "polyreactivity (PSR sort gate)": "low polyreactivity"}, {"sequence": "QVQLEESGGGLVQAGGSLRLICAASGIIFLFYALGWYRQAPGKERELVASITWSGGSTYYADSVKGRFTISRDNAKNTVYLQMNSLKPEDTAVYYCAASVKIISYLVHSEFLGGELDYWGQGTHVTVSS", "polyreactivity (PSR sort gate)": "low polyreactivity"}, {"sequence": "QVQLEESGGGLVQAGGSLRLICAASGIIFRLNAMGWYRQATGQDRELVAAIRRRGGSTYYADSVKGRFTISRDNAKNTVYLQMNSLKPEDTAVYYCNARYLRMRYPYTDEYNYWGQGTQVTVSS", "polyreactivity (PSR sort gate)": "low polyreactivity"}, {"sequence": "QVQLEESGGGLVQAGGSLRLICAASGSTFGDNAMGWSRQAPGKEGEFVAGISTNGGSTYYADSVKGRFTISRDNAKNTFYLQMNSLKPEDIAVYSCAAVNYYDQYGDYYWGQGTQVTVSS", "polyreactivity (PSR sort gate)": "low polyreactivity"}, {"sequence": "QVQLEESGGGLVQAGGSLRLICAASGSTFIYNAMGWYRQAPGKERELVAAISARTGNTYYADSVKGRFTISRDNAKNTVYLQMNSLKPEDTAVYYCARRGFPRGGGPSRYYWYDYWGQGTQVTVSS", "polyreactivity (PSR sort gate)": "high polyreactivity"}, {"sequence": "QVQLEESGGGLVQAGGSLRLSCAAAGLTFDVYAMGWYRPAPGNEMELVAAISSIGGSTYYADSVKGRFTISRDNAKNNVYLQMYSLKPEDTAVYYCSAAISLYSYDYWGQGTQVTVSS", "polyreactivity (PSR sort gate)": "low polyreactivity"}, {"sequence": "QVQLEESGGGLVQAGGSLRLSCAASGFIFLDYAMGWYRQAPGKERELVAAISSRGARTYYADSVKGRFTISRDNAKNTVYLQMNSLKPEDTAVYYCAARGPLDRYGYWGQGTQVTVSS", "polyreactivity (PSR sort gate)": "high polyreactivity"}, {"sequence": "QVQLEESGGGLVQAGGSLRLSCAASGFIFSSNAKGWYRQAPGKERELVAAISSSGGRTYYADSVKGRFTISRDNAKNPVYLQMNSLIPEYTAVYYCNADPRSLGSANDWGQGTQVTVSS", "polyreactivity (PSR sort gate)": "high polyreactivity"}, {"sequence": "QVQLEESGGGLVQAGGSLRLSCAASGFIFSWYAMGWYRQAPGKERELVARISSSGGNTYYADSVKGRFTISRDNAKNTVYLQMNSLKPEDTAVYYCAATRYSLSGYGYWGQGTQVTVSS", "polyreactivity (PSR sort gate)": "high polyreactivity"}, {"sequence": "QVQLEESGGGLVQAGGSLRLSCAASGFTFERNAMGWYRQAPGKERELVAAISWSGGSTYYADSVKGRFTISRDNAKNTVYLQMNSLKPEDTAVYYCAAYQWGYWYGYRMDYWGQGTQVTVSS", "polyreactivity (PSR sort gate)": "high polyreactivity"}, {"sequence": "QVQLEESGGGLVQAGGSLRLSCAASGFTFGRYPLGWYRQAPGKERELVAAITRGSGGTYYADSVKGRFTISRDNAKNTVYLQMNSLKPEDTAVYYCNTASYRGYDYWGQGTQVTVSS", "polyreactivity (PSR sort gate)": "high polyreactivity"}, {"sequence": "QVQLEESGGGLVQAGGSLRLSCAASGFTFRYYAMGRYRQAPGKVRELVAVISRTGGSTNFADSVKGRFTISRDNAKKTVYLQMNSLKPEDTAVYYCNAVARYQTKYRYEYWGQGTQETVSS", "polyreactivity (PSR sort gate)": "high polyreactivity"}, {"sequence": "QVQLEESGGGLVQAGGSLRLSCAASGFTFSPNAMGWYRQAPGKVRELVAAIDWIGGSTYYADSVKWRFTISRDNAKNTVYLQMKSLNTEDTAVYLCTADWVYWHYLTYLVTFDYWGQGTQVTVSS", "polyreactivity (PSR sort gate)": "low polyreactivity"}, {"sequence": "QVQLEESGGGLVQAGGSLRLSCAASGFTFSRNAMGWYRKAPGKERQLVARISSRGGSTYYADSVKGRFTISRDNAKKTVYLQMNSLKPEDTAVYYCARDPVGTTAARYNYWGQGTQVTVSS", "polyreactivity (PSR sort gate)": "high polyreactivity"}]}]}
